Experiments:
casein [1] = assay: Specific activity with casein as substrate at 37° C.; type: biochemical; conditions: casein 0.8%, pH 7.5, 5 mM CaCl2
Procedure: (§1) Specific activities for TLP-ste and the 8-fold mutant were determined using casein (0.8%) as a substrate in 50 mM Tris-HCl (pH 7.5), 5 mM CaCl2 at 37° C. […] (pH 7.0), 5 mM CaCl2, 5% or 1% DMSO, 0.5% isopropanol, 0.01% Triton X-100, 50 mM NaCl, with […] of substrate, by measuring the decrease in absorption at 345 nm (Î345=−317 M^−1·cm^−1). Stock solutions of the furylacryloylated dipeptides, (Sigma, St. Louis, […].) were prepared by dissolving 3-(-2-furylacryloyl)-L-glycyl-L-leucine amide (FaGLa) and 3-(-2-furylacryloyl)-L-alanyl-L-phenylalanine amide (FaAFa) in DMSO. The kcat/Km ratios of the enzymes were determined by varying the enzyme concentrations (over a 50 fold range) under pseudo-first order conditions by measuring the initial activity, essentially according to the method described by Feder^30. The Ki for phosphoramidon (N-[a-L-rhamnopyrano-syl-oxyhydroxyphophinyl]-L-leucyl-L-tryptophan) was determined by a 30 minute preincubation of a 100 pM protease solution with varying concentrations of the inhibitor (10^−8 to 10^−3 M), in 50 mM MOPS (pH 7.0), 5 mM CaCl2, 50 mM NaCl, prior to the addition of the furylacryloated substrate. For determination of the Ki FaAFa was used as the substrate. Since the Km of the substrate for the enzyme is higher than the concentration used, IC50 values were taken to be equal to Ki values. The optimum temperature for activity was determined by incubating proteases with casein (0.8%) in 50 mM Tris-HCl (pH 7.5), 5 mM CaCl2, at different temperatures for 30 minutes, after which the amount of released peptides, indicative for activity, was measured^11.

casein [2] = assay: Optimum temperature for activity with casein; type: biochemical; conditions: casein 0.8%, 30 minutes
Procedure: as §1

[3] = type: physicochemical; conditions: buffer, pH 5.3
Procedure: Stabilities of TLPs were determined at different temperatures. Shown are the first-order inactivation curves for TLP-ste incubated at 80° C. (Δ) and 90° C. (+), thermolysin at 90° C. (Δ), and the 8-fold mutant at 100° C. (●), respectively. […] Samples, taken at the various time points, were quickly cooled on ice (15 s) and transferred to 50° C. to prevent cold denaturation. Residual activity was determined using casein (0.8%) as a substrate in 50 mM TrisHCl (pH 7.5), 5 mM CaCl2 as described previously (Eijsink, V. G. H., Veltman, O. R., Aukema, W., Vriend, G. & Venema, G. Nature Struct. Biol. 2, 374-379 (1995)).

[4] = Effect of denaturing agents on protease activity (FaGLa, 50° C.); type: biochemical
Procedure: Protease activities were determined in 50 mM MOPS (pH 7.0), 5 mM CaCl2, 50 mM NaCl, 0.01% Triton X-100, 0.5% isopropanol, using 100 μM FaGLa (3-(-2-furylacryloyl)-L-glycyl-L-leucine amide) as a substrate at 50° C. Enzymes and denaturing agents were preincubated in the reaction mixture at 50° C. for 15 minutes prior to the addition of the substrate. The reaction was followed by measuring the change in absorbance at 345 nm. […] Activities are expressed as percentage of the activity in the absence of denaturant.

[5] = system: α-amylase from Bacillus licheniformis; assay: Hydrolysis of protease resistant α-amylase (SDS-PAGE); type: biochemical; conditions: 60 minutes
Procedure: As an example of the enzymatic activity of the 8-fold mutant we tested the hydrolysis of protease resistant α-amylase from Bacillus licheniformis by the 8-fold mutant. B. licheniformis α-amylase (1 mg/ml) in 50 mM MOPS, pH 7.0, 5 mM CaCl2, 0.01% Triton X-100 was incubated with purified TLP-ste (1 μg/ml), the 8-fold mutant or without protease for 60 minutes at the temperature indicated. The reaction volume was 500 μL. […] Precipitates (only observed in the 100° C. samples) were collected by centrifugation and redissolved in 500 μL 6 M Urea. Both supernatants and redissolved precipitates were subjected to standard SDS-PAGE, including pre-treatment with sample loading buffer (5 minutes at 100° C.). The samples were identical in size (20 μL supernatant and 20 μL dissolved precipitate). Gels were stained with Coomassie-brilliant blue.

[6] = Thermal stability (T50) at varying CaCl2 concentrations
Procedure: Thermal stability was measured, using varying CaCl2concentrations in the standard assay buffer (20 mM Na acetate, pH 5.3, 0.01% Triton X-100, 0.5% isopropanol, 62.5 mM NaCl). T50 is the temperature of incubation at which 50 percent of the initial proteolytic activity is lost during a 30 minutes incubation.

[7] = First order thermal inactivation of TLP-ste variants at 75° C. in 5 mM or 0.2 mM CaCl2
[8] = 0.2 mM CaCl2, 30 minutes incubation
[9] = 0.5 mM CaCl2, 30 minutes incubation
[10] = 2.5 mM CaCl2, 30 minutes incubation
[11] = 5.0 mM CaCl2, 30 minutes incubation
[12] = 7.5 mM CaCl2, 30 minutes incubation
[13] = 12.5 mM CaCl2, 30 minutes incubation

B1: TLP-ste: broad-specificity metalloprotease (thermolysin-like protease) produced by Bacillus stearothermophilus CU21, SEQUENCE ID No. 1 (protein)
chain: VAGASTVGVGRGVLGDQKYINTTYSSYYGYYYLQDNTRGSGIFTYDGRNRTVLPGSLWTDGDNQFTASYDAAAVDAHYYAGVVYDYYKNVHGRLSYDGSNAAIRSTVHYGRGYNNAFWNGSQMVYGDGDGQTFLPFSGGIDVVGHELTHAVTDYTAGLVYQNESGAINEAMSDIFGTLVEFYANRNPDWEIGEDIYTPGVAGDALRSMSDPAKYGDPDHYSKRYTGTQDNGGVHTNSGIINKAAYLLSQGGVHYGVSVNGIGRDKMGKIFYRALVYYLTPTSNFSQLRAACVQAAADLYGSTSQEVNSVKQAFNAVGVY
Specific activity casein (casein [1]): 3.5 ± 0.7 (U/mg) × 10^−3
Topt (optimum temperature for activity) (casein [2]): 74 °C
half-life 80° C. [3]: 17.5 min
half-life 90° C. [3]: <2 min
half-life 100° C. [3]: <0.5 min
relative activity ([4]; GndHCl 0 M): 100%
relative activity ([4]; GndHCl 1.0 M): 99%
relative activity ([4]; GndHCl 2.0 M): 62%
relative activity ([4]; GndHCl 3.0 M): 0%
relative activity ([4]; GndHCl 4.0 M): 0%
relative activity ([4]; GndHCl 5.0 M): 0%
relative activity ([4]; GndHCl 5.5 M): 0%
relative activity ([4]; GndHCl 6.0 M): 0%
relative activity ([4]; SDS 0 % w/v): 100%
relative activity ([4]; SDS 0.25 % w/v): 72%
relative activity ([4]; SDS 0.5 % w/v): 37%
relative activity ([4]; SDS 0.75 % w/v): 9.6%
relative activity ([4]; SDS 1.0 % w/v): 0%
relative activity ([4]; SDS 1.25 % w/v): 0%
relative activity ([4]; SDS 1.5 % w/v): 0%
relative activity ([4]; SDS 2.0 % w/v): 0%
relative activity ([4]; Urea 0 M): 100%
relative activity ([4]; Urea 0.5 M): 96%
relative activity ([4]; Urea 1.0 M): 87%
relative activity ([4]; Urea 2.0 M): 75%
relative activity ([4]; Urea 3.0 M): 3%
relative activity ([4]; Urea 4.0 M): 0%
relative activity ([4]; Urea 5.0 M): 0%
relative activity ([4]; Urea 7.5 M): 0%
degradation of B. licheniformis α-amylase ([5]; 80° C. and lower): No significant degradation
hydrolysis of B. licheniformis α-amylase ([5]; 100° C.): no hydrolysis had occurred
T50 [6, 8]: 65.5 °C
T50 [6, 9]: 67.5 °C
T50 [6, 10]: 72.9 °C
T50 [6, 11]: 75.2 °C
T50 [6, 12]: 77.0 °C
T50 [6, 13]: 77.9 °C
Half-life ratio 5 mM/0.2 mM [7]: 12

B2: D57S: TLP-ste variant with Asp57 of the Ca3 site replaced by Ser (protein, listed as Bacillus sp.)
chain: VAGASTVGVGRGVLGDQKYINTTYSGYYYLQDNTRGSGIFTYDGRNRTVLPGSLWTSGDNQFTASYDAAAVDAHYYAGVVYDYYKNVHGRLSYDGSNAAIRSTVHYGRGYNNAFWNGSQMVYGDGDGQTFLPFSGGIDVVGHELTHAVTDYTAGLVYQNESGAINEAMSDIFGTLVEFYANRNPDWEIGEDIYTPGVAGDALRSMSDPAKYGDPDHYSKRYTGTQDNGGVHTNSGIINKAAYLLSQGGVHYGVSVNGIGRDKMGKIFYRALVYYLTPTSNFSQLRAACVQAAADLYGSTSQEVNSVKQAFNAVGVY
dependence of stability on the calcium concentration [6]: reduced this calcium dependence
T50 [6, 8]: 65.9 °C
T50 [6, 9]: 67.3 °C
T50 [6, 10]: 67.5 °C
T50 [6, 11]: 68.2 °C
T50 [6, 12]: 68.8 °C
T50 [6, 13]: 69.4 °C
stability effect of the mutation on the wild-type enzyme ([6]; lowest calcium concentration tested): slightly stabilised
Half-life ratio 5 mM/0.2 mM [7]: 1.5

B3: T63F-A69P: TLP-ste variant with the combined stabilising T63F-A69P mutation (protein, listed as Bacillus sp.)
chain: VAGASTVGVGRGVLGDQKYINTTYSGYYYLQDNTRGSGIFTYDGRNRTVLPGSLWTDGDNQFFASYDAPAVDAHYYAGVVYDYYKNVHGRLSYDGSNAAIRSTVHYGRGYNNAFWNGSQMVYGDGDGQTFLPFSGGIDVVGHELTHAVTDYTAGLVYQNESGAINEAMSDIFGTLVEFYANRNPDWEIGEDIYTPGVAGDALRSMSDPAKYGDPDHYSKRYTGTQDNGGVHTNSGIINKAAYLLSQGGVHYGVSVNGIGRDKMGKIFYRALVYYLTPTSNFSQLRAACVQAAADLYGSTSQEVNSVKQAFNAVGVY
dependence of stability on the calcium concentration [6]: depended strongly on the calcium concentration
T50 [6, 8]: 77.8 °C
T50 [6, 9]: 80.9 °C
T50 [6, 10]: 86.6 °C
T50 [6, 11]: 87.2 °C
T50 [6, 12]: 89.7 °C
T50 [6, 13]: 90.2 °C
Half-life ratio 5 mM/0.2 mM [7]: 19

B4: D57S-T63F-A69P: TLP-ste variant combining D57S with T63F-A69P (protein, listed as Bacillus sp.)
chain: VAGASTVGVGRGVLGDQKYINTTYSGYYYLQDNTRGSGIFTYDGRNRTVLPGSLWTSGDNQFFASYDAPAVDAHYYAGVVYDYYKNVHGRLSYDGSNAAIRSTVHYGRGYNNAFWNGSQMVYGDGDGQTFLPFSGGIDVVGHELTHAVTDYTAGLVYQNESGAINEAMSDIFGTLVEFYANRNPDWEIGEDIYTPGVAGDALRSMSDPAKYGDPDHYSKRYTGTQDNGGVHTNSGIINKAAYLLSQGGVHYGVSVNGIGRDKMGKIFYRALVYYLTPTSNFSQLRAACVQAAADLYGSTSQEVNSVKQAFNAVGVY
dependence of stability on the calcium concentration [6]: largely independent of the calcium concentration
T50 [6, 8]: 74.6 °C
T50 [6, 9]: 75.4 °C
T50 [6, 10]: 76.2 °C
T50 [6, 11]: 76.5 °C
T50 [6, 12]: 76.7 °C
T50 [6, 13]: 77.2 °C
stability compared with the wild-type enzyme ([6]; at lower calcium concentrations): considerably more stable than the wild-type enzyme
Half-life ratio 5 mM/0.2 mM [7]: 1.5

B5: TLN: thermolysin, protease secreted by Bacillus thermoproteolyticus, SEQUENCE ID No. 2 (protein, UniProt P00800 233-548, looked up)
Thermolysin: ITGTSTVGVGRGVLGDQKNINTTYSTYYYLQDNTRGNGIFTYDAKYRTTLPGSLWADADNQFFASYDAPAVDAHYYAGVTYDYYKNVHNRLSYDGNNAAIRSSVHYSQGYNNAFWNGSQMVYGDGDGQTFIPLSGGIDVVAHELTHAVTDYTAGLIYQNESGAINEAISDIFGTLVEFYANKNPDWEIGEDVYTPGISGDSLRSMSDPAKYGDPDHYSKRYTGTQDNGGVHINSGIINKAAYLISQGGTHYGVSVVGIGRDKLGKIFYRALTQYLTPTSNFSQLRAAAVQSATDLYGSTSQEVASVKQAFDAVGVK
Topt (optimum temperature for activity) (casein [2]): 77 °C
half-life 80° C. [3]: >200 min
half-life 90° C. [3]: 12.5 min
half-life 100° C. [3]: <2 min
